# From patent US20140086927A1 (FUJITA HEALTH UNIVERSITY, published 2014)
# B1: F005-126 antibody (IgG) (antibody, V domains shown)
# VH: QVQLVQSGAEVKKPGASVTVSCQVSGYTLTSYGLSWVRQAPGQGLEWVGWINTYDGQTKYVKKFQGRVTMTTHTGTNTAYMEMKSLRSDDTAVYYCARVEGVRGVMGFHYYPMDVWGQGTMVTVSS
# VL: QSVLTQPPSVSGAPGQRVTISCTGSSSNIGAGYAVHWYQQLPGTAPKLLISGNSNRPSGVPDRFSGSKSGTSASLAITGLQAEDEADYYCQSYDSSLSGSVFGGGTKLTVLG
# notes: also called F5126; F05126
# Experiments:
# [1] = target: Fuk85HA44-309 (truncated HA on 293T cells) (Influenza A virus H3N2, …, UniProt P12589 44-309); test: flow cytometry on 293T cells expressing truncated HA
# [2] = target: Fuk85HA39-319 (truncated HA on 293T cells) (Influenza A virus H3N2, …, UniProt P12589 39-319); test: as above
binder,measurement,setting,value
B1,binding result,[1],no binding
same,binding result,[2],binds
